Experimental data as given in US20220401560A1, “PEPTIDE ENCAPSULATING FERRITIN” (Ajinomoto Co., Inc., priority 2019, published 2022).
Positions of bridges follow the written chain, without caps; N, C: chain ends. No end group written: not given here. *: point of attachment. Pent4ynoyl = C#CCCC(=O)*

Legend:
[1] = molecular target: T1, ferritin (FTH) (Homo sapiens, UniProt P02794); assay: Search for peptides capable of being encapsulated into ferritin by disassembly/reassembly process, LC-MS detection; parameters: key to encapsulation: “A” represents peptides with three times of confirmation of encapsulation.; “B” represents peptides with two times of confirmation of encapsulation or less.; “C” represents peptides without confirmation of encapsulation; conditions: for MS peak of peptide derived from peptide encapsulating ferritin: FTH, disassembly/reassembly process performed; for encapsulation: encapsulation into ferritin (FTH), three trials
T1 construct: made in house; host or cells: Escherichia coli BL21 (DE3), plasmid pET20-FTH
T1 sequence (P02794 whole entry): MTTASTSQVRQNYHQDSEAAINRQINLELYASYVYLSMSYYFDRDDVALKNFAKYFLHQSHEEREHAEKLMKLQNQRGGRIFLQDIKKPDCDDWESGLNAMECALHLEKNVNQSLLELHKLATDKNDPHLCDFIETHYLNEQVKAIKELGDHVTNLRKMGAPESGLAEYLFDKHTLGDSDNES
Method: Peptides capable of being encapsulated into ferritin by disassembly/reassembly process were searched. In the disassembly/reassembly process, 1 mL of a 50 mM glycine hydrochloride buffer (pH 2.3) containing FTH at a final concentration of 5 mg/mL and the peptide at a final concentration of 0.5 mM, was left to stand at room temperature for 15 minutes. Next, 310 μL of a 1 M Tris hydrochloride buffer (pH 9.0) was added for neutralization, and left to stand at room temperature for 3 hours. After the standing, 1.2 mL of a 50 mM Tris hydrochloride buffer (pH 8.0) was added, and centrifuged (at 15,000 rpm for one minute). Thereafter, 2.5 mL of its supernatant was injected into a desalting column PD-10 (Sephadex G-25 filled product, GE Healthcare Inc.) equilibrated with a 50 mM Tris hydrochloride buffer (pH 8) for the elusion with 3.0 mL of a 50 mM Tris hydrochloride buffer (pH 8.0) to separate non-encapsulated peptides and ferritin. A whole amount (3.0 mL) of the resulting solution was concentrated to 0.1 mL by centrifugal ultrafiltration using Vivaspin 20-100K (GE Healthcare Inc.). The operation of adding 10 mL of a 50 mM Tris hydrochloride buffer to the concentrated solution and then concentrating was repeated twice to remove peptides that were not removed by PD-10 to obtain 0.1 mL of a sample solution. For the LC-MS analysis, 50 p1 of a 1 M glycine hydrochloride buffer (pH 2.3) was added to 50 μL of the sample solution and then the resulting solution was left to stand at room temperature for 15 minutes. To the solution, 900 μL of ethanol was added. Next, the resulting solution was stirred vigorously and then centrifuged (at 15,000 rpm for five minutes) for collection of the supernatant. The supernatant was analyzed using LCMS-2020 (Shimadzu Corporation) as LC-MS, Inertsil (Registered trademark) as a column, ODS-3, particle diameter of 2 μm and 2.1 mm×50 mm (GL science). Thereafter, 10 μL of the sample injected into the column was eluded at a flow rate of 0.2 mL/min for 10 minutes such that a mixing ratio of a solution A (0.1% formic acid/99.9% acetonitrile) and a solution B (50% water/50% acetonitrile) is from 95:5 to 95:5.
The encapsulation of the peptide into ferritin was studied by comparing in terms of the amount of the peptide detected by LC/MS between the sample prepared by encapsulating the peptide into ferritin at the disassembly/reassembly process and the sample prepared simply by mixing ferritin with the peptide. For example, ClAc-FHC was eluted at a retention time of 0.8 minute. […] However, the peak was not observed for the sample prepared by simply mixing the peptide with ferritin without performing the disassembly/reassembly process (FIG. 12B). FIG. 13 to FIG. 17 illustrate LC-MS results for FTH in which the peptide was encapsulated at the disassembly/reassembly process.

[2] = molecular target: T1, ferritin (FTH); assay: Encapsulation of fluorescent dye-modified peptide into FTH, column chromatography with absorbance at 480 nm and LC-MS; conditions: absorbance at 480 nm at elution position of 24-mer FTH; LC-MS
Method: Of a 50 mM glycine hydrochloride buffer (pH 2.3) that contains FTH (chemical formula weight: 509,421) at a final concentration of 5 mg/mL and the peptide at a final concentration of 0.5 mM, 0.5 mL was left to stand at room temperature for 15 minutes. Next, 50 μL of a 1 M Tris hydrochloride buffer (pH 9.0) was added for neutralization, and the resulting solution was left to stand at room temperature for 3 hours. After the standing, the resulting solution was centrifuged (at 15,000 rpm for one minute). Then, the supernatant was collected and the volume was increased up to 3 mL with a 10 mM Tris hydrochloride buffer (pH 8). The resulting solution was injected into the HiPrep 26/60 Sephacryl S-300 HR column (GE Healthcare Inc.) equilibrated with a 10 mM Tris-HCl buffer (pH 8.0) to separate and purify 24-mer FTH by size at a flow rate of 1.3 mL/minute. The purified ferritin was analyzed using a HiPrep 16/60 Sephacryl S-300 HR column (GE Healthcare Inc.) equilibrated with a 10 mM Tris-HCl buffer (pH 8.0) at a flow rate of 0.5 mL/minute and confirmed as the absorbance at 480 nm unobservable from FTH only, at the same position as that of a peak of FTH.
The solution containing the FTH was concentrated to 0.25 mL by centrifugal ultrafiltration using Vivaspin 20-100K (GE Healthcare Inc.). […] For the LC-MS analysis, 50 μL of a 1 M glycine hydrochloride buffer (pH 2.3) was added to 50 μL of the sample solution and then the resulting solution was left to stand at room temperature for 15 minutes. To the solution 900 μL of ethanol was added. Next, the resulting solution was stirred vigorously and then centrifuged (at 15,000 rpm for five minutes) to collect its supernatant. The supernatant was analyzed using LCMS-2020 (Shimadzu Corporation) as LC-MS, inertsil (Registered trademark) ODS-3 with a particle diameter of 2 μm and 2.1 mm×50 mm (GL science) as a column. Into the column, 10 μL of the sample was injected, and eluded at a flow rate of 0.2 mL/min for 10 minutes such that a mixing ratio of a solution A (0.1% formic acid/99.9% acetonitrile) and a solution B (50% water/50% acetonitrile) was from 95:5 to 95:5. The concentration of the contained protein was determined using a protein assay CBB solution (Nacalai Tesque, Inc.) in terms of bovine albumin as a standard. The concentration of the encapsulated peptide was determined based on the absorbance at 480 nm of the fluorescent dye FAM to which PKC-F is modified.
First, the construction of FTH encapsulating two kinds of fluorescent dye-modified peptides [5(6)—FAM-[…] (SEQ ID NO: 10), FAM-SV40, chemical formula weight 1,516, and 5(6)—FAM-[…] […] (SEQ ID NO: 11), FAN-Np, chemical formula weight 384] was attempted. 0.5 mL of a 50 mM glycine hydrochloride buffer (pH 2.3) that contains FTH (chemical formula weight 509,421) at a final concentration of 5 mg/mL and a peptide at a final concentration of 0.5 mM, was left to stand at room temperature for 15 minutes. Next, 50 μL of a 1 M Tris hydrochloride buffer (pH 9.0) was added for neutralization, and the resulting solution was left to stand at room temperature for 3 hours. […] The absorbance at […] was confirmed at the same elusion position as that of ferritin 24-mer, for ferritin that was used for the operation to encapsulate FAM-SV40 therein. […] Next, the peptide amount of FAM-SV40 encapsulated in purified ferritin was quantified based on the 480 nm absorbance and by CBB staining with use of ferritin-amount-albumin as a standard.

Substance	MS peak of peptide derived from peptide encapsulating ferritin [1]	encapsulation of peptide in FTH [2]	encapsulation [1]
FBP0032: cyclic peptide with disulfide bond, X is 4-pentynoic acid (Pent4ynoyl-GQKGCKKTPKLASLSCTGF; disulfide 5-16 (inferred))	presence		A (“A” represents peptides with three times of confirmation of encapsulation.)
Pakti-L1: cyclic peptide, cysteine sulfur bonded to acetyl group at N-terminus ({CH2CO}-YILVRNRLLRVDCG; thioether N-13)	presence		B (“B” represents peptides with two times of confirmation of encapsulation or less.)
FBP0033: cyclic peptide with disulfide bond, X is 4-pentynoic acid (Pent4ynoyl-GRPGCGPRKPRTPKKCGSH; disulfide 5-16 (inferred))	presence		A (“A” represents peptides with three times of confirmation of encapsulation.)
cyclo(RGDFV) (SEQ ID NO: 13) [cyloRGDfV, reference compound]	presence		B (“B” represents peptides with two times of confirmation of encapsulation or less.)
HTSD (SEQ ID NO: 12) [EGFR]	presence		A (“A” represents peptides with three times of confirmation of encapsulation.)
5(6)-FAM-CGGKRPAAIK KAGQAKKKKG (SEQ ID NO: 11) ({5(6)‑FAM}-CGGKRPAAIKKAGQAKKKKG) [FAM-Np, fluorescent dye-modified peptide, linear]		not encapsulated	C
cyclo (AS (D-Pro) PTWI (Dab) (Orn) (D-Dab)(Dab)W(Dab)(Dab)) [Murepavadin, reference compound]	presence		A (“A” represents peptides with three times of confirmation of encapsulation.)
RRRRRRRRRR (SEQ ID NO: 17) [Rx10]			C
EEEEEEEEEE (SEQ ID NO: 16) [Ex10]	presence		A (“A” represents peptides with three times of confirmation of encapsulation.)
cyclo(PPYVPLII) (SEQ ID NO: 15) (cyclic; Synthetic amino acid sequence of the peptide Hymenistatin I which is to be tested for encapsulation with ferritin) [cyclic peptide purchased from Sigma-Aldrich, reference compound]	presence		B (“B” represents peptides with two times of confirmation of encapsulation or less.)

The next lines start with results.

MS peak of peptide derived from peptide encapsulating ferritin [1]	encapsulation of peptide in FTH [2]	Substance	encapsulation [1]
presence		GIRLRGGIRLRGGIRLRG (SEQ ID NO: 22) (Synthetic amino acid sequence of the peptide GRP78-3 which is to be tested for encapsulation with ferritin) [linear peptide]	B (“B” represents peptides with two times of confirmation of encapsulation or less.)
presence		VLWLKNR (SEQ ID NO: 14) (Synthetic amino acid sequence of the peptide FGF3-FP16 which is to be tested for encapsulation with ferritin) [linear peptide]	B (“B” represents peptides with two times of confirmation of encapsulation or less.)
presence		GGKRPARGGKRPAR (SEQ ID NO: 19) (Synthetic amino acid sequence of the peptide NRP-1-2 which is to be tested for encapsulation with ferritin) [linear peptide]	A (“A” represents peptides with three times of confirmation of encapsulation.)
presence		SPRGDLAVLGHKY (SEQ ID NO: 18) (Synthetic amino acid sequence of the peptide avb6 which is to be tested for encapsulation with ferritin) [ανβ6, linear peptide]	B (“B” represents peptides with two times of confirmation of encapsulation or less.)
presence		QMARIPKRLARHQMAR (SEQ ID NO: 21) (Synthetic amino acid sequence of the peptide NS which is to be tested for encapsulation with ferritin) [linear peptide]	A (“A” represents peptides with three times of confirmation of encapsulation.)
